Results from patent US9212226B2, “Amino acid sequences directed against CXCR4 and other GPCRs and compounds comprising the same” (Ablynx N.V., priority 2008, dated 2015).
“Also recorded” adds a separate entry of the source.

T1: CXCR1 (Homo sapiens, UniProt P25024)
T1 sequence (P25024 1-350): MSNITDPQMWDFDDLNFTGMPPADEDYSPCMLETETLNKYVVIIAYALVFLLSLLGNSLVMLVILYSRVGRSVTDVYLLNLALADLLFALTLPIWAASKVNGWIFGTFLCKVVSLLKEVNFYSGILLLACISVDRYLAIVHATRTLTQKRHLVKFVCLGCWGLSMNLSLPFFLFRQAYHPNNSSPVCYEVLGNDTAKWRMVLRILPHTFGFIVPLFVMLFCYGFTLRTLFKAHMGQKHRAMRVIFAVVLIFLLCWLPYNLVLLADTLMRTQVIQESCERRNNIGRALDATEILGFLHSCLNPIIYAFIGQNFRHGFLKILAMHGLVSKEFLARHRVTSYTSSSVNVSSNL


Experiments:
CXCR1 = target: T1, CXCR1; assay: CRE/β-galactosidase reporter gene selectivity screen, CXCR1; format: cell-based; details: up to 2.5, forskolin 3 μM, agonist at 50-80% Emax
Method: (§1) Data are shown as means±S.E.M. (n=2-3).
(§2) HEK293T cells were maintained at 37° C. in a humidified 5% CO2, 95% air atmosphere in Dulbecco's modified Eagle's medium (DMEM) containing 2 mM L-glutamine, 50 IU/ml penicillin, 50 μg/ml streptomycin, and 10% (v/v) fetal calf serum. Jurkat cells were cultured in a humidified 5% CO2, 95% air atmosphere in a 1:1 mixture of Dulbecco's modified Eagle's medium (DMEM) and Ham's F12 medium containing 2 mM L-glutamine, 50 IU/ml penicillin, 50 μg/ml streptomycin, and 10% (v/v) fetal calf serum. […] [^125 I]-Labelling— Radiolabeling of Nanobodies with ^125I was performed using the Iodo-gen method (Pierce, Rockford, Ill.) according to the manufacturer's protocol. ^125I-labeled Nanobodies was separated from free iodine (>99%) using a Sephadex G-25 gel filtration column (Amersham Biosciences, Piscataway, N.J.). […] Competition Binding Assays— Membranes from HEK293T cells transiently expressing CXCR3 or CXCR4 were prepared 48 h after transfection as follows. Cells were washed and scraped from the cell culture dishes with ice-cold PBS containing 1 mm EDTA. The scraped cells were pelleted at 1500×g for 10 min at 4° C. […] The total protein was determined using a Bradford assay (Bio-Rad). […] Plates were counted by liquid scintillation. […] The accumulated inositol phosphates were isolated by anion exchange chromatography and counted by liquid scintillation. […]

CXCR6 = CXCR6 (Homo sapiens, UniProt O00574); assay: CRE/β-galactosidase reporter gene selectivity screen, CXCR6; format: cell-based; details: up to 2.5, forskolin 3 μM, agonist at 50-80% Emax
Sequence of CXCR6 (O00574 whole entry, species assumed): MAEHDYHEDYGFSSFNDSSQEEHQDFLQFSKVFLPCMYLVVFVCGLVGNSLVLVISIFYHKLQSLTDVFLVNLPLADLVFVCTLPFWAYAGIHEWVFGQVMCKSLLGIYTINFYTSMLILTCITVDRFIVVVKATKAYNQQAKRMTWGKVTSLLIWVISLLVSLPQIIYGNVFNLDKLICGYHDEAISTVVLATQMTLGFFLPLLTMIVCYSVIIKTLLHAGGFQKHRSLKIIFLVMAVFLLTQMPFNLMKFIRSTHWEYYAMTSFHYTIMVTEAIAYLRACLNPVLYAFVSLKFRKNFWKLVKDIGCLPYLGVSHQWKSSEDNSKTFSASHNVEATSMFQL
Method: as §1, §2

Molecule | effect on agonist-induced response at CXCR1 (CXCR1) | effect on agonist-induced response at CXCR6 (CXCR6)
238D2: Nanobody (VHH) raised against human CXCR4, SEQ ID NO: 238 (protein, Nanobody, Nanobody constructs or fragments thereof) VHH: EVQLVESGGGLVQTGGSLRLSCAASGFTFSSYAMSWVRQAPGKGLEWVSGIKSSGDSTRYAGSVKGRFTISRDNAKNMLYLQMYSLKPEDTAVYYCAKSRVSRTGLYTYDNRGQGTQVTVSS | do not act as agonists or antagonists; also recorded: do not alter | do not act as agonists or antagonists; also recorded: do not alter
238D4: Nanobody (VHH) raised against human CXCR4, SEQ ID NO: 239 (protein, Nanobody, Nanobody constructs or fragments thereof) VHH: EVQLMESGGGLVQAGGSLRLSCAASGRTFNNYAMGWFRRAPGKEREFVAAITRSGVRSGVSAIYGDSVKDRFTISRDNAKNTLYLQMNSLKPEDTAVYTCAASAIGSGALRRFEYDYSGQGTQVTVSS | do not act as agonists or antagonists; also recorded: do not alter | do not act as agonists or antagonists; also recorded: do not alter
